This note sets out measurements from publication PMC7284552.

The subject of this data set is T1, A1S_0316 (putative IclR-type transcription factor) (Acinetobacter baumannii ATCC 17978), ORF:5d858888.
T1 sequence: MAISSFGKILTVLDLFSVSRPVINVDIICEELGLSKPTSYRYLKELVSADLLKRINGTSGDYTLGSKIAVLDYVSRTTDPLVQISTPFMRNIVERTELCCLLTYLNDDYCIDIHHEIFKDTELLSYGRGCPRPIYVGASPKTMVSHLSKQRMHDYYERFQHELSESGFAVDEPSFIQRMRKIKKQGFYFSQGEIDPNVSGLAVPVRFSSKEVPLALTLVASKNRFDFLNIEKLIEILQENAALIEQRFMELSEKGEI
In words: competition. Particulars: EMSA: 5 min at 37 C, 5% native PAGE (40:1), 100 V 1.5 h; binding buffer, salt and pH not stated. Background: In EMSA bound probe runs differently from free probe, usually more slowly.

For the sequence “GGCAAGCGAAACAAAGAAGTTGTTCATATTTGCTAGTTGGGTAAAAAATTACCGAATTACAACGGAAATTGTAAGTAATTTTGTCAATAATTTACTTGATTAAAATTATCAAGCACTTGGAAAGTCTATCAAGTGTTTGTATGATTCAAATGTGAATAGCTTAAAAATAATACTGGGGTAAAAAAATATCTCAGGGGCCAATAAATTTAGGCTGAGCTTGAACAACAATTGTTATCTCTGGAGGATATCCATGAAATTGAGTCGTATTGCACTTGCTACTATGCTTGTTGCTGCTCCATT (double strand) [AbOmpA promoter (AbOmpAp), -231 to +100]”, the binding entry is “binds”.
